Assay results from IntAct's records for PubMed 17396155.

B1: General receptor for phosphoinositides 1-associated scaffold protein (Rattus norvegicus (Rat)), Q8R4T5 (parent)
chain: MTLRRLRKLQQKEEATAAPDLAGRAPDSEAARAAPTPSGPPAAAAPPGAPGDELYAALEDYHPAELYRALAVSGGTLPRRKGSGFRWKNFTQSPEQQRKVLTLEKGDNQTFGFEIQTYGLHHREEQRVEMVTFVCRVHESSPAQLAGLTPGDTIASVNGLNVEGIRHREIVDIIKASGNVLRLETLYGTSIRKAELEARLQYLKQTLYEKWGEYRSLMVQEQRLVHGLVVKDPSIYDTLESVRSCLYGAGLLPGSLPFGPLLAAPGGARGGSRRAKGDTDDAVYHTCFFGGAEPQALPPPPPPARAPGPGSAETPASVLCPAPRATLSRSASVRCAGPGGGGGGGAPGALWTEAREQALCGAGLRKTKYRSFRRRLLKFIPGLNRSLEEEESQL

Variants of: B1
Settings: with grm5_rat Grm5, P31424
Chain of grm5_rat Grm5, P31424 (P31424 whole entry, looked up): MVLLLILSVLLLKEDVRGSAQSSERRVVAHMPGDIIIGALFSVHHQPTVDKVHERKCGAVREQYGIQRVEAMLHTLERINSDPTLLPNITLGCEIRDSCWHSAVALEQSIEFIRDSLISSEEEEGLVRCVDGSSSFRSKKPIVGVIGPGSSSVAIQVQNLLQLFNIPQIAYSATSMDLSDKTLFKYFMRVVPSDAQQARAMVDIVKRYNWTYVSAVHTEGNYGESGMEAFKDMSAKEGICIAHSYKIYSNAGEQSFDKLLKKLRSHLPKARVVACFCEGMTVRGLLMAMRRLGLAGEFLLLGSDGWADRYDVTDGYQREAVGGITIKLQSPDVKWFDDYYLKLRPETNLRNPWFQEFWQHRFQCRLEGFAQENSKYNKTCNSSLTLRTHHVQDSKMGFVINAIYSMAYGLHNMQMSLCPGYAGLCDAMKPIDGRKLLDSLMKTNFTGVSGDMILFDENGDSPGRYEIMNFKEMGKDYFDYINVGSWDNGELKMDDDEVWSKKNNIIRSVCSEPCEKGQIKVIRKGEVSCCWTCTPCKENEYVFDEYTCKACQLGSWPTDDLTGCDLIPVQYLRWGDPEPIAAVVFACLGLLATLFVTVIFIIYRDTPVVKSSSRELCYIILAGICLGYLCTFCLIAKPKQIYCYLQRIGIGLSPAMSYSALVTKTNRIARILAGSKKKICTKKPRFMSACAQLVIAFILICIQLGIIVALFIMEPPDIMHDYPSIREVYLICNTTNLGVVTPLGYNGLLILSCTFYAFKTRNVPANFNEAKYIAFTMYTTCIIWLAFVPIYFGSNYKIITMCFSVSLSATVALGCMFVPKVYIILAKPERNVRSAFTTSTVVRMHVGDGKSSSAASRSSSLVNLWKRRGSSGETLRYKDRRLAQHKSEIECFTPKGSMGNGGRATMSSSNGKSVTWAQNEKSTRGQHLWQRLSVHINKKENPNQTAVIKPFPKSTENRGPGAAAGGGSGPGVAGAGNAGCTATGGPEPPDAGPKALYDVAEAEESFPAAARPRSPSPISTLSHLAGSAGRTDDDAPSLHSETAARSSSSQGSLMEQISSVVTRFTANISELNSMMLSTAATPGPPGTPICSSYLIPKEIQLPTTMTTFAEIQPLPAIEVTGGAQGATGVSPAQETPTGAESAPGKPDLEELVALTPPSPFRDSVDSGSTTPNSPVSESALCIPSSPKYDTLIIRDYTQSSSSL

Row | Variant | effect of a mutation on the interaction
1 | E114K | decreasing interaction
